The EC50 is the concentration needed to bring the measured effect to its halfway point. The low end stands for higher potency in that assay, the high end for lower potency in that assay.

Data on one molecule can be found in US20210269521A1 (L AND L BIOPHARMA, published 2021).

Experiment [1] deals with T1, human PD-1 extracellular domain protein expressed in Example 1 (tag not stated) (human, UniProt Q15116 25-170).
T1 construct: extracellular domain; also called PD-1 protein; not shown: human IgG1 Fc or his tag
The experiment in a line: ELISA, PD-1 coated. The method, then:
PD-1 expressed in Example 1 was diluted to a concentration of 1 μg/ml with PBS buffer, pH 7.4, and added to a 96-well microplate (Corning, CLS3590-100EA) at 50 μl per well, thereby incubating in an incubator at 37° C. for 2 hours. After discarding the liquid, a blocking solution of 5% skimmed milk (Shanghai Shenggong Biological Engineering Co., Ltd., A600669-0250) diluted with PBS was added at 200 μl per well, followed by incubating at 37° C. for 3 hours or 4° C. overnight (16-18 hours)) for blocking. Subsequently, the blocking solution was discarded, and the microplate was washed 5 times with PBST buffer (pH 7.4 PBS containing 0.05% tween-20). […] Subsequently, the microplate was washed 5 times with PBST, then 50 μl/well of 1:2500 diluted HRP-labeled secondary antibody (Jackson Immuno Research, 115-035-003) was added, thereby incubating at 37° C. for 1 hour. After washing the microplate 5 times with PBST, 50 μl/well TMB chromogenic substrate (KPL, 52-00-03) was added, then incubated at room temperature for 5-10 min. Finally, 50 μl/well of 1M H₂SO₄ was added to stop the reaction. […] Go microplate reader (ThermoFisher, 51119200) was used to read the absorption value at 450 nm and the EC50 based on the OD value was calculated.
The above-mentioned TIM-3 and PD-1 bispecific antibodies of the present invention were optimized and designed using the methods of Example 2 and Example 5, and their affinity for TIM-3 and PD-1 were tested respectively.
(An ELISA detects its analyte on a solid surface through an enzyme-linked reagent.)

The target in experiment [2] is T1, human PD-1 extracellular domain protein …. The experiment in a line: ELISA; pH 5.5, 40°C 10 days.
Experiment [3] has as its target T2, human TIM-3 extracellular domain-human IgG1 Fc fusion protein (human, UniProt Q8TDQ0 22-199).
T2 construct: Made in house or bought (ACROBiosystems TM3-H5258); also called TIM-3-hFc; not shown: human IgG1 Fc
Briefly: ELISA; pH 5.5, 40°C 10 days.

Experiment [4] addresses T1, human PD-1 extracellular domain protein …. The experiment in a line: ELISA; pH 5.5, 40°C 5 days, against 0 day.
The target in experiment [5] is T2, human TIM-3 extracellular domain-human …. Briefly: ELISA; pH 5.5, 40°C 5 days, against 0 day.
The target in experiment [6] is T1, human PD-1 extracellular domain protein …. The experiment in a line: ELISA; preparation buffer, 37°C 14 days, against 0 day.
Experiment [7] concerns the target T2, human TIM-3 extracellular domain-human …. The description is as above.
Experiment [8] addresses T1, human PD-1 extracellular domain protein …. Briefly: ELISA; preparation buffer, 0 day, against 0 day.
Experiment [9] addresses T2, human TIM-3 extracellular domain-human …. Briefly: ELISA; preparation buffer, 0 day, against 0 day.
Experiment [10] has the same target. Briefly: ELISA. The method, then:
Goat-anti-hFc (Jackson, 109-005-008) was diluted to a concentration of 1 μg/ml with PBS buffer (pH 7.4) and added to a 96-well microplate (Corning, CLS3590-100EA) at a volume of 50 μl/well, then incubated in an incubator at 37° C. for 2 hours (Or the antigen TIM-3 was directly used to coat the microplate with a concentration of 0.5 μg/ml, and then the antibody to be tested was directly added). After discarding the liquid, a blocking solution of 5% skimmed milk (skimmed milk powder purchased from Bright) diluted with PBS was added at 200 μl per well, and the microplate was incubated for 2.5 hours at 37° C. or overnight (16-18 hours) at 4° C. for blocking. The blocking solution was discarded, and the microplate was washed 5 times with PBST buffer (PBS with pH 7.4 containing 0.05% tween-20), then 50 μl/well of 0.5 μg/ml TIM-3-hFc (Example 1) was added and incubated for 2 hours in a 37° C. incubator. After incubation, the microplate was washed 6 times with PB ST. 50 μl/well of supernatant (containing testing antibody) or different concentrations of the antibody to be tested was added, and the microplate was incubated at 37° C. for 2 hours and washed 5 times with PBST. 50 μl/well of 1:2500 diluted HRP-labeled secondary antibody (Jackson Immuno Research, 115-035-003) was added to the microplate, incubating at 37° C. for 1 hour. After washing the microplate 5 times with PBST, 50 μl/well TMB chromogenic substrate (KPL, 52-00-03) was added to the microplate, followed by incubating at room temperature for 10-15 min.

For experiment [11], the target named is T1, human PD-1 extracellular domain protein …. Briefly: ELISA; pH 5.5, 37°C 10 days.
The target of experiment [12] is T2, human TIM-3 extracellular domain-human …. Briefly: ELISA; pH 5.5, 37°C 10 days.
Experiment [13] concerns the target T1, human PD-1 extracellular domain protein …. Briefly: ELISA; pH 5.5, 37°C 10 days, against 0 day.
Experiment [14] deals with T2, human TIM-3 extracellular domain-human …. The experiment in a line: ELISA; pH 5.5, 37°C 10 days, against 0 day.

B1: bispecific antibody LB141 (bispecific antibody, human IgG4 S228P, kappa)
light: EIVLTQSPATLSLSPGERATLSCRASKGVSTSGYSYLHWYQQKPGQAPRLLIYLASYLESGVPARFSGSGSGTDFTLTISSLEPEDFAVYYCQHSRDLPLTFGGGTKVEIKRTVAAPSVFIFPPSDEQLKSGTASVVCLLNNFYPREAKVQWKVDNALQSGNSQESVTEQDSKDSTYSLSSTLTLSKADYEKHKVYACEVTHQGLSSPVTKSFNRGEC
heavy: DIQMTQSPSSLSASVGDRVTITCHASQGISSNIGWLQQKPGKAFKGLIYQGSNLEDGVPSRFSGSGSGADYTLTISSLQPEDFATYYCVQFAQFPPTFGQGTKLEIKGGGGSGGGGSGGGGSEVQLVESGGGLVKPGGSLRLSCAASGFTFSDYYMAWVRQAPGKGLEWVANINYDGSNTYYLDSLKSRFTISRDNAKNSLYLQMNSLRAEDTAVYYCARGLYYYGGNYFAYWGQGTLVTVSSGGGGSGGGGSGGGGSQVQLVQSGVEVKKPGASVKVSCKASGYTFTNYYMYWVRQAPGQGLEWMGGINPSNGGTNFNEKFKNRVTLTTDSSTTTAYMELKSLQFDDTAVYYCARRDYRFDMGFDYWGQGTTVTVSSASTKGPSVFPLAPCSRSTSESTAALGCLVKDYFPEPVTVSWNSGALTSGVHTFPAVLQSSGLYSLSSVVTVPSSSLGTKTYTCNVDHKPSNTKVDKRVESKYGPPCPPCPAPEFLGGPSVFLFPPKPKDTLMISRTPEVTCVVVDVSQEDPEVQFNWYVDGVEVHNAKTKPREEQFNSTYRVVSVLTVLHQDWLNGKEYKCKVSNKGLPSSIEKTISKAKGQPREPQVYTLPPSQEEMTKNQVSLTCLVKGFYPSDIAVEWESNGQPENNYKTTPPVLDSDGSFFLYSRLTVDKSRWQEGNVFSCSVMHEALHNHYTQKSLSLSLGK
notes: ab6VL-(G4S)3-ab6VH-(G4S)3-PemVH-hIgG4 with PemVL-κ
On to B1, for which the EC50 in experiment [1] worked out at 0.052 nM; in experiment [2], 0.215 nM; in experiment [3], 0.373 nM; in [10], 0.648 nM; in experiment [11] it was 0.199 nM; in [12] it was 0.307 nM. Further, the “Fold change of EC50” value in [4] is 1.1 ratio; in experiment [5], 0.95 ratio; in experiment [6], 1.18 ratio; in experiment [7], 47.9 ratio; in experiment [8], 1 ratio; in experiment [9] it was 1 ratio. Besides, the “Fold change of EC50” value in experiment [13] was determined as 1.1 ratio; in [14], 0.85 ratio.
